Assay results published in patent publication US20150031620.

Tests used:
[1] = tested on: recombinant human TMD23 (wild-type thrombomodulin domains 2 and 3)
[2] = tested on: mutant rTMD23NA (thrombomodulin domains 2 and 3 with N364A and N391A)
Chain of mutant rTMD23NA (thrombomodulin domains 2 and 3 with N364A and N391A) (chain, as listed by the source N364A N391A): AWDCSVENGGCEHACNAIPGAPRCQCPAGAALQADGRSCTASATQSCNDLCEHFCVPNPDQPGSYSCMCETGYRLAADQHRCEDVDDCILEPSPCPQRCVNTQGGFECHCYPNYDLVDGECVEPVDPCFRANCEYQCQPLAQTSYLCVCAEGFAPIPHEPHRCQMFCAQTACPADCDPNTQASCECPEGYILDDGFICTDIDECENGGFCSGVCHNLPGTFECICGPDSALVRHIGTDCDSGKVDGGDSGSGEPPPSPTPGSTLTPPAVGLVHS

Chain of recombinant human TMD23 (wild-type thrombomodulin domains 2 and 3) (chain, as listed by the source): as the sequence (chain, as listed by the source N364A N391A) above, with A141N, A168N counted along it

Substance: thrombin
- thrombin-dependent activation of protein C (hydrolysis of Chromozym PCa, absorbance at 405 nm) [1]: only recombinant TMD23 gave rise to thrombin-dependent protein C activation
- thrombin-dependent activation of protein C (hydrolysis of Chromozym PCa, absorbance at 405 nm) [2]: The mutant rTMD23NA lost its cofactor activity in catalyzing thrombin-dependent activation of Protein C
